In publication PMC3542637 one finds Km, kcat and kcat/Km data, which are given here for three proteins.

The term Km denotes the concentration of substrate that gives half-maximal velocity. As a reminder, the kcat is the number of substrate molecules converted per active site and unit of time at saturation. As a reminder, the kcat/Km is the second-order rate constant that governs catalysis at low substrate concentration.

Common to all, as to experiment: purified protein
Substrate in data set [1]: O=C1O[C@H](CO)[C@@H](O)[C@@H]1O
The class given is biochemical, Burkholderia multivorans. The conditions noted are these: pH 8.3, 2.5 mM BICINE, 0.2 M NaCl, 1% DMSO, 30 °C.

Substrate in data set [2]: C[C@H]1C[C@@H](O)[C@H](O)C(=O)O1
It is filed as biochemical, Burkholderia multivorans. The conditions noted are these: pH 7.1, 2.5 mM MOPS, 0.2 M NaCl, 1% DMSO, 30 °C.

Substrate in data set [3]: O=C1O[C@H]([C@@H](O)CO)[C@@H](O)[C@@H]1O
It is filed as biochemical, Burkholderia multivorans. Conditions: pH 8.3, 2.5 mM BICINE, 0.2 M NaCl, 1% DMSO, 30 °C.

Substrate in data set [4]: C[C@H](O)[C@H]1OC(=O)[C@@H](O)[C@@H]1O
It is filed as biochemical, Burkholderia multivorans. The conditions noted are these: pH 8.3, 2.5 mM BICINE, 0.2 M NaCl, 1% DMSO, 30 °C.

Substrate in data set [5]: O=C1O[C@@H](CO)[C@@H](O)[C@@H]1O
It is filed as biochemical, Burkholderia multivorans. Conditions: pH 8.3, 2.5 mM BICINE, 0.2 M NaCl, 1% DMSO, 30 °C.

Substrate in data set [6]: NC(=O)c1ccc[n+]([C@@H]2O[C@H](COP(=O)(O)OP(=O)(O)OC[C@H]3O[C@@H](n4cnc5c(N)ncnc54)[C@H](OP(=O)(O)O)[C@@H]3O)[C@@H](O)[C@H]2O)c1
It is filed as biochemical, Burkholderia multivorans. Conditions: 200 μM L-fucose, pH 8.0, 50 mM BICINE, 30 °C, varied: cofactor.

Substrate in data set [7]: NC(=O)c1ccc[n+]([C@@H]2O[C@H](COP(=O)(O)OP(=O)(O)OC[C@H]3O[C@@H](n4cnc5c(N)ncnc54)[C@H](O)[C@@H]3O)[C@@H](O)[C@H]2O)c1
It is filed as biochemical, Burkholderia multivorans. The conditions noted are these: 200 μM L-fucose, pH 8.0, 50 mM BICINE, 30 °C, varied: cofactor.

Substrate in data set [8]: O=C1O[C@H](CO)[C@@H](O)[C@@H]1O
The class given is biochemical, Burkholderia ambifaria. The conditions noted are these: pH 8.3, 2.5 mM BICINE, 0.2 M NaCl, 1% DMSO, 30 °C.

Substrate in data set [9]: C[C@H]1C[C@@H](O)[C@H](O)C(=O)O1
It is filed as biochemical, Burkholderia ambifaria. Conditions: pH 7.1, 2.5 mM MOPS, 0.2 M NaCl, 1% DMSO, 30 °C.

Substrate in data set [10]: O=C1O[C@H]([C@@H](O)CO)[C@@H](O)[C@@H]1O
It is filed as biochemical, Burkholderia ambifaria. The conditions noted are these: pH 8.3, 2.5 mM BICINE, 0.2 M NaCl, 1% DMSO, 30 °C.

Substrate in data set [11]: C[C@H](O)[C@H]1OC(=O)[C@@H](O)[C@@H]1O
The class given is biochemical, Burkholderia ambifaria. The conditions noted are these: pH 8.3, 2.5 mM BICINE, 0.2 M NaCl, 1% DMSO, 30 °C.

Substrate in data set [12]: O=C1O[C@@H](CO)[C@@H](O)[C@@H]1O
It is filed as biochemical, Burkholderia ambifaria. The conditions noted are these: pH 8.3, 2.5 mM BICINE, 0.2 M NaCl, 1% DMSO, 30 °C.

B1: BmulJ_04915 (Burkholderia multivorans ATCC 17616) (protein)
chain: MGALRIDSHQHFWRYRAADYPWIGAGMGVLARDYLPDALHPLMHAQALGASIAVQARAGRDETAFLLELACDEARIAAVVGWEDLRAPQLAERVAEWRGTKLRGFRHQLQDEADVRAFVDDADFARGVAWLQANDYVYDVLVFERQLPDVQAFCARHDAHWLVLDHAGKPALAEFDRDDTALARWRAALRELAALPHVVCKLSGLVTEADWRRGLRASDLRHIEQCLDAALDAFGPQRLMFGSDWPVCLLAASYDEVASLVERWAESRLSAAERSALWGGTAARCYALPEPADARL
Consider B1, for which the Km in the data set “purified protein [1]” was found to be 700 ± 50 µM; in the data set “purified protein [2]”, 130 ± 30 µM; in the data set “purified protein [3]”, 1100 ± 200 µM; in the data set “purified protein [4]” it was 1400 ± 200 µM; in “purified protein [5]”, 1500 ± 300 µM. Further, the kcat in “purified protein [1]” was determined as 59 ± 2 s⁻¹; in the data set “purified protein [2]” it was 994 ± 64 s⁻¹; in the data set “purified protein [3]”, 32 ± 2 s⁻¹; in the data set “purified protein [4]” it was 140 ± 8 s⁻¹; in “purified protein [5]” it was 14 ± 1 s⁻¹.

B2: BmulJ_04919 (Burkholderia multivorans ATCC 17616) (protein)
chain: MDLNLQDKVVIVTGGASGIGGAISMRLAEERAIPVVFARHAPDGAFLDALAQRQPRATYLPVELQDDAQCRDAVAQTIATFGRLDGLVNNAGVNDGIGLDAGRDAFVASLERNLIHYYAMAHYCVPHLKATRGAIVNISSKTAVTGQGNTSGYCASKGAQLALTREWAVALREHGVRVNAVIPAEVMTPLYRNWIATFEDPEAKLAEIAAKVPLGRRFTTPDEIADTAVFLLSPRASHTTGEWLFVDGGYTHLDRALV
In the case of B2, in the data set “purified protein [6]”, the Km came to 4.0 ± 0.5 µM, the kcat was 11 ± 0.2 s⁻¹ and the kcat/Km came to 3e+06 M⁻¹ s⁻¹. Further, the Km in the data set “purified protein [7]” amounted to 28 ± 4 µM.

B3: Bamb_1224 (Burkholderia ambifaria AMMD) (protein)
chain: MTFRIDAHQHFWQMASRDGYWPPQTLDAIYRDFGPQDLEPLLARSGVQRTVVVQSLPTQEDTRYLLDVASRTSFVAAVVGWVDLKSTDAPADIASLARDPKFRGIRPMLQDLADDDWIDDPVLEPAIDAMLAHDLAFDALVTPRHLPALLAFARRYPRLRIVIDHAAKPPIASGRSEAWHVAMSELAAHPNVHCKLSGLWTEAGPHPDLLRVEPYVRAVCDWFGASRLIWGSDWPVSRLAGHFGDYGAWLAWCEQCCDRFLGPDARARVFGGNACHFYRIDRPSGDQHAQ
On to B3, for which the Km is 800 ± 100 µM in the data set “purified protein [8]”; 210 ± 20 µM in “purified protein [9]”; 1300 ± 100 µM in “purified protein [10]”; 900 ± 100 µM in “purified protein [11]”; 1300 ± 300 µM in “purified protein [12]”. The kcat stood at 19 ± 1 s⁻¹ in “purified protein [8]”; 1530 ± 47 s⁻¹ in the data set “purified protein [9]”; 55 ± 2 s⁻¹ in the data set “purified protein [10]”; 89 ± 4 s⁻¹ in “purified protein [11]”; 6.0 ± 0.5 s⁻¹ in the data set “purified protein [12]”.
